Measured values: the supplement of paper PMC10567573

B1: SLC2A12 (parent)
chain: TRIMIGLTLVFFVQITGQPNILFY
B2: ZNF193 (parent)
chain: QKRYHCKECGKVFSQSAGLIQHQR

Variants of: B1
Assay: protein stability index of a GFP-peptide fusion (GPS, HEK-293T) (PSI 1-6); higher = more stable
Conditions: c terminus: a fixed tail appended
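Further: lentivirally expressed fusions sorted by FACS into six bins by GFP to DsRed ratio, PSI derived from sequencing read proportions per bin multiplied by bin number.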

Variant	protein stability index
V13A	3.24
V13H	3.1
V13M	3.17
V13W	2.85
V13L	2.69
V13E	2.15
V13S	2.7
V13Y	3.14
V13N	3.86
V13Q	2.33
V13T	3.18
V13P	3.01
V13K	2.19
V13R	2.87
V13I	3.48
V13G	3.16
V13D	2.46
I15F	3.46
I15Q	3.39
I15C	3.47
I15L	2.74
I15G	1.73
I15R	2.93
I15T	3.01

Variant	protein stability index
I15P	3.74
I15Y	3.97
I15M	2.5
I15H	2
I15A	1.54
I15S	2.98
I3M	3.1
I3S	3.14
I3G	2.12
I3A	2.59
I3C	2.21
I3K	2.94
I3L	2.85
I3Y	3.58
I3H	2.87
I3R	2.86
I3T	1.84
I3N	2.12
I3F	2.81
I3P	2.49
F12M	2.49
F12I	2.79
F12H	3.17
F12E	2.77

Variant	protein stability index
F12A	4.95
F12P	4.16
F12N	3.88
F12S	3.48
F12K	2.95
F12L	3.53
F12W	2.48
F12Y	3.14
F12D	2.7
F12Q	3.16
F12V	3.31
R2G	3.53
R2M	4.67
R2K	2.82
R2N	3.48
R2Q	4
R2Y	2.27
R2C	1.74
R2S	2.95
R2I	2.93
R2A	3.31
R2D	3.39
R2W	3.62
R2T	2.27

Variant	protein stability index
R2L	2.57
R2H	2.17
Q18E	4.17
Q18P	3.94
Q18N	2.47
Q18W	3.71
Q18M	3.21
Q18G	3.24
Q18R	3.77
Q18A	3.12
Q18H	3.08
Q18Y	3.56
Q18K	3.22
Q18S	3.39
Q18T	2.7
Q18C	2.86
Q18D	2.16
Q18V	4.47
L9W	2.24
L9A	3.04
L9Q	1.7
L9M	2.58
L9F	5.04
L9I	3.09

Variant	protein stability index
L9C	2.63
L9R	3.25
L9G	2.8
L9N	2.69
L9D	3.04
L7I	2.63
L7N	2.78
L7V	2.5
L7Y	4.24
L7E	2.62
L7R	2.42
L7H	3.31
L7A	3.65
L7W	2.84
L7P	2.96
L7C	2.22
L7Q	1.72
L7K	1.8
L7S	3.54
L7F	2.41
L7D	2.9
F11L	2.5
F11S	3.83
F11Y	3.02

Variant	protein stability index
F11C	3.27
F11G	2.78
F11P	2.09
F11T	3.22
F11N	2
F11Q	3.49
F11D	2.15
F11I	3.63
F11E	1.63
F11R	2.16
F11K	2.68
G17P	3.68
G17T	2.58
G17N	3.03
G17H	2.87
G17Y	3.48
G17L	2.86
G17D	3.49
G17M	3.31
G17V	2
G17K	2.58
G17Q	2.8
G17R	3.35
G17A	2.96

Variant	protein stability index
G17W	2.11
Q14W	4.35
Q14T	3.67
Q14N	3.37
Q14I	2.88
Q14V	3.44
Q14D	2.14
Q14R	2.38
Q14F	2.86
Q14A	3.31
Q14G	3.68
Q14L	3.19
Q14K	3.25
Q14E	2.11
Q14S	3.29
Q14H	2.02
Q14Y	3.3
T1A	2.48
T1S	3.37
T1Q	2.42
T1P	2.26
T1W	3.23
T1G	3.81
T1K	2.57

Variant	protein stability index
T1Y	5.08
T1I	3.72
T1M	1.44
M4D	3.33
M4Q	2.88
M4A	3.65
M4P	2.72
M4C	4.43
M4F	2.29
M4I	1.92
M4H	2.79
M4L	2.64
M4V	4.05
M4S	3.75
M4G	2.99
M4W	3.96
M4N	3.52
M4R	3.83
M4T	2.73
M4Y	2.6
T16H	3.42
T16A	2.63
T16Y	3.48
T16S	3.65

Variant	protein stability index
T16L	1.04
T16I	4.14
T16N	4.04
T16P	3.4
T16W	2.42
T16Q	3.11
T16E	2.95
I5K	3.18
I5L	3.43
I5V	2.69
I5R	2.21
I5T	2.83
I5E	3.74
I5G	3.23
I5F	3.16
I5H	3.25
I5Q	3.43
I5D	3.91
I5Y	2.65
I5M	1.77
I5A	2.6
T8Y	2.64
T8F	2.26
T8Q	2.43

Variant	protein stability index
T8D	2.01
T8G	2.77
T8H	4.12
T8P	4.51
T8L	3.33
T8I	2.72
T8N	3.93
T8S	2.71
T8C	3.82
T8V	3.33
T8M	3.52
V10W	2.58
V10R	2.5
V10T	3.36
V10C	2.69
V10A	3.99
V10E	3.41
V10K	3.44
V10M	3.53
V10G	3.27
V10F	3.06
V10H	3.39
V10P	2.51
V10D	1.78

Variant	protein stability index
V10N	3.65
V10Y	2.56
V10L	2.4
G6F	4.16
G6D	2.73
G6I	1.06
G6H	2.34
G6E	3.67
G6V	2.43
G6R	2.75
G6Q	2.82
G6W	1.9
G6Y	2.48
G6K	2.19
G6A	1.78
G6C	2.87
G6T	3.1
G6L	2.22
G6M	2.46

Variants of: B2
Assay: as above
Conditions: c terminus: a fixed tail appended

Variant	protein stability index
Q21V	2.37
Q21S	2.47
Q21I	2.1
Q21P	2.08
Q21T	2.61
Q21M	2.55
Q21G	2.67
Q21N	3.02
Q21D	3.82
Q21H	2.88
Q21W	2.44
Q21E	3.7
Q21F	1.91
Q21L	2.57
Q21Y	2.21
Q21C	3.06
Q21R	2.69
Q21K	2.6
Q23G	2.07
Q23W	1.97
Q23F	2.05
Q23A	2.5
Q23P	1.74
Q23L	2.69
Q23T	2.51

Variant	protein stability index
Q23C	2.81
Q23H	2.97
Q23V	2.37
Q23D	2.29
Q23I	2.57
Q23N	2.36
Q23R	2.85
Q23K	3.36
Q23S	2.54
Q23E	2.55
Q23M	3.13
Q23Y	2.4
R24T	2.33
R24F	2
R24A	2.83
R24L	1.43
R24M	2.44
R24K	3.65
R24C	4.52
R24Y	2.5
R24I	1.96
R24N	2
R24V	2.28
R24P	2.44
R24D	3.33

Variant	protein stability index
R24Q	2.48
R24E	3.53
R24G	3.05
R24S	2.43
R24H	3.44
R24W	2.1
H22F	2.66
H22G	1.41
H22S	1.9
H22I	1.73
H22W	1.99
H22Q	2.1
H22A	1.16
H22V	1.33
H22D	2.1
H22C	2.04
H22R	1.62
H22N	1.67
H22T	2.05
H22K	2.14
H22Y	1.5
H22M	1.84
H22P	1.64
H22L	1.75
H22E	1.59
